Target: endogenous LC3 (MCF10A cells), Q9GZQ8
Assay: co-immunoprecipitation (Flag-Trap), immunoblot
Settings: chain shown with the change; BafA1-treated MCF10A cells; parent: 1.0

Binder | ratio to parent
wild-type Flag-CTNNA1 (in MCF10A cells), P35221 Y419A; V422A; L897A; F900A (protein) MTAVHAGNINFKWDPKSLEIRTLAVERLLEPLVTQVTTLVNTNSKGPSNKKRGRSKKAHVLAASVEQATENFLEKGDKIAKESQFLKEELVAAVEDVRKQGDLMKAAAGEFADDPCSSVKRGNMVRAARALLSAVTRLLILADMADVYKLLVQLKVVEDGILKLRNAGNEQDLGIQYKALKPEVDKLNIMAAKRQQELKDVGHRDQMAAARGILQKNVPILYTASQACLQHPDVAAYKANRDLIYKQLQQAVTGISNAAQATASDDASQHQGGGGGELAYALNNFDKQIIVDPLSFSEERFRPSLEERLESIISGAALMADSSCTRDDRRERIVAECNAVRQALQDLLSEYMGNAGRKERSDALNSAIDKMTKKTRDLRRQLRKAVMDHVSDSFLETNVPLLVLIEAAKNGNEKEVKEAAQAFREHANKLIEVANLACSISNNEEGVKLVRMSASQLEALCPQVINAALALAAKPQSKLAQENMDLFKEQWEKQVRVLTDAVDDITSIDDFLAVSENHILEDVNKCVIALQEKDVDGLDRTAGAIRGRAARVIHVVTSEMDNYEPGVYTEKVLEATKLLSNTVMPRFTEQVEAAVEALSSDPAQPMDENEFIDASRLVYDGIRDIRKAVLMIRTPEELDDSDFETEDFDVRSRTSVQTEDDQLIAGQSARAIMAQLPQEQKAKIAEQVASFQEEKSKLDAEVSKWDDSGNDIIVLAKQMCMIMMEMTDFTRGKGPLKNTSDVISAAKKIAEAGSRMDKLGRTIADHCPDSACKQDLLAYLQRIALYCHQLNICSKVKAEVQNLGGELVVSGVDSAMSLIQAAKNLMNAVVQTVKASYVASTKYQKSQGMASLNLPAVSWKMKAPEKKPLVKREKQDETQTKIKRASQKKHVNPVQAASEAKAMDSI | 0.29
wild-type Flag-CTNNA1 (in MCF10A cells), P35221 Y419A; V422A (protein) MTAVHAGNINFKWDPKSLEIRTLAVERLLEPLVTQVTTLVNTNSKGPSNKKRGRSKKAHVLAASVEQATENFLEKGDKIAKESQFLKEELVAAVEDVRKQGDLMKAAAGEFADDPCSSVKRGNMVRAARALLSAVTRLLILADMADVYKLLVQLKVVEDGILKLRNAGNEQDLGIQYKALKPEVDKLNIMAAKRQQELKDVGHRDQMAAARGILQKNVPILYTASQACLQHPDVAAYKANRDLIYKQLQQAVTGISNAAQATASDDASQHQGGGGGELAYALNNFDKQIIVDPLSFSEERFRPSLEERLESIISGAALMADSSCTRDDRRERIVAECNAVRQALQDLLSEYMGNAGRKERSDALNSAIDKMTKKTRDLRRQLRKAVMDHVSDSFLETNVPLLVLIEAAKNGNEKEVKEAAQAFREHANKLIEVANLACSISNNEEGVKLVRMSASQLEALCPQVINAALALAAKPQSKLAQENMDLFKEQWEKQVRVLTDAVDDITSIDDFLAVSENHILEDVNKCVIALQEKDVDGLDRTAGAIRGRAARVIHVVTSEMDNYEPGVYTEKVLEATKLLSNTVMPRFTEQVEAAVEALSSDPAQPMDENEFIDASRLVYDGIRDIRKAVLMIRTPEELDDSDFETEDFDVRSRTSVQTEDDQLIAGQSARAIMAQLPQEQKAKIAEQVASFQEEKSKLDAEVSKWDDSGNDIIVLAKQMCMIMMEMTDFTRGKGPLKNTSDVISAAKKIAEAGSRMDKLGRTIADHCPDSACKQDLLAYLQRIALYCHQLNICSKVKAEVQNLGGELVVSGVDSAMSLIQAAKNLMNAVVQTVKASYVASTKYQKSQGMASLNLPAVSWKMKAPEKKPLVKREKQDETQTKIKRASQKKHVNPVQALSEFKAMDSI | 0.23
wild-type Flag-CTNNA1 (in MCF10A cells), P35221 L897A; F900A (protein) MTAVHAGNINFKWDPKSLEIRTLAVERLLEPLVTQVTTLVNTNSKGPSNKKRGRSKKAHVLAASVEQATENFLEKGDKIAKESQFLKEELVAAVEDVRKQGDLMKAAAGEFADDPCSSVKRGNMVRAARALLSAVTRLLILADMADVYKLLVQLKVVEDGILKLRNAGNEQDLGIQYKALKPEVDKLNIMAAKRQQELKDVGHRDQMAAARGILQKNVPILYTASQACLQHPDVAAYKANRDLIYKQLQQAVTGISNAAQATASDDASQHQGGGGGELAYALNNFDKQIIVDPLSFSEERFRPSLEERLESIISGAALMADSSCTRDDRRERIVAECNAVRQALQDLLSEYMGNAGRKERSDALNSAIDKMTKKTRDLRRQLRKAVMDHVSDSFLETNVPLLVLIEAAKNGNEKEVKEYAQVFREHANKLIEVANLACSISNNEEGVKLVRMSASQLEALCPQVINAALALAAKPQSKLAQENMDLFKEQWEKQVRVLTDAVDDITSIDDFLAVSENHILEDVNKCVIALQEKDVDGLDRTAGAIRGRAARVIHVVTSEMDNYEPGVYTEKVLEATKLLSNTVMPRFTEQVEAAVEALSSDPAQPMDENEFIDASRLVYDGIRDIRKAVLMIRTPEELDDSDFETEDFDVRSRTSVQTEDDQLIAGQSARAIMAQLPQEQKAKIAEQVASFQEEKSKLDAEVSKWDDSGNDIIVLAKQMCMIMMEMTDFTRGKGPLKNTSDVISAAKKIAEAGSRMDKLGRTIADHCPDSACKQDLLAYLQRIALYCHQLNICSKVKAEVQNLGGELVVSGVDSAMSLIQAAKNLMNAVVQTVKASYVASTKYQKSQGMASLNLPAVSWKMKAPEKKPLVKREKQDETQTKIKRASQKKHVNPVQAASEAKAMDSI | 0.22

Source: PMC7969950
